In patent US20090048158A1, “Insulin-Like Growth Factor Binding Protein-4 Compounds and Methods for Inhibiting Angiogenesis and Tumor Growth in Mammalian Cells” (priority 2005, published 2009):

What was measured:
[1] = tested on: human brain endothelial cells (HBEC); test: Capillary-like tube (CLT) formation in Matrigel; format: cell-based; conditions: for effect on IGF-1-induced CLT formation: IGF-1 150 ng/ml; for effect on IGF-1-induced CLT formation / effect on P1GF-induced CLT formation / effect on VEGF165-induced CLT formation / effect on bFGF-induced CLT formation: protein 500 ng/ml; for effect on P1GF-induced CLT formation: P1GF 100 ng/ml; for effect on VEGF165-induced CLT formation: VEGF165 20 ng/ml; for effect on bFGF-induced CLT formation: bFGF 20 ng/ml
Text: Angiogenesis is the formation of new blood vessels from pre-existing capillaries. There are different methods to evaluate angiogenesis in vitro and in vivo. The method used in our studies consists in seeding human brain microvascular endothelial cells on Matrigel, which is an active matrix material resembling the mammalian cellular basement membrane. Endothelial cells seeded on Matrigel behave as they do in vivo and when submitted to an angiogenic stimuli reorganize forming a complex network of capillary-like tubes. The total length of the capillary-like tube network as well as the number of branching point (nodes) formed by the endothelial cells directly correlate with the potency of the angiogenic stimuli.
In vitro angiogenesis was assessed by endothelial tube formation in growth factor reduced Matrigel™ (BD Bioscience, Bedford, Mass.). 24-well plates were coated with 300 μl of unpolymerized Matrigel™ (5-7 mg prot/ml) and allowed to polymerize for 90 min at 37° C. […] In a set of experiments, 500 ng/ml of either full length recombinant IGFBP-4, NBP-4 or CBP-4 were co-applied with growth factors (IGF-I, VEGF165, P1GF, or bFGF) or U87MG CM. […] CLT formation was analyzed after 24 h using an Olympus 1×50 microscope. Phase contrast images were captured with a digital video camera (Olympus U-CMT) and analyzed using Northern Eclipse v.5.0 software. Microphotographs were thresholded, converted to binary images and skeletonized. The total length of the CLT networks and the number of nodes (branching points) formed by HBEC in the center of the well (˜80% of the total surface) were quantified. […]

[2] = tested on: plasminogen activator activity in U87MG cells; test: Plasminogen activator activity assay (S-2251); format: cell-based, human; conditions: 500 μM dB-cAMP, 3-day treatment
Protocol: Plasminogen activator activity (PAA) was determined by a spectrophotometric method using the chromogenic substrate S-2251 (D-Val-Leu-Lys p-nitroanilide dihydrochloride). […] Cells were washed 3 times and incubated for 2 h at 37° C. in phenol red-free D-MEM containing 2 c.u./ml plasminogen (DiaPharma Group, Ohio, USA) and 2 mM chromogenic substrate S-2251 (DiaPharma Group, Ohio, USA). The cleavage of 4-nitroaniline from the substrate by plasminogen activator was measured photometrically at 405 nm. Protein levels were measured with BioRad protein assay and PPA was expressed as a function of protein content in cell extracts.

U87MG cells [3] = test: U87MG proliferation, CyQUANT Cell Proliferation Assay; format: cell-based, human; conditions: for decrease in proliferation: 500 μM dB-cAMP
Protocol: Proliferation rates of U87MG cells were determined using CyQUANT® Cell Proliferation Assay Kit (Molecular Probes, Inc., Eugene, Oreg.). […] Cells were fed every two days and harvested at days 2, 3, 5 and 6 by washing with HBSS, blotting microplates dry and storing at −80° C. until analysis. For cell density determination, plates were thawed at room temperature, 200 μl of CyQUANT GR dye/lysis buffer was added to each well and plates were incubated in the dark for 5 min. Sample fluorescence was measured (485 nm ex/530 nm em) in a cytofluorimeter plate reader (Bio-Tek FL600) and fluorescence values converted into cell numbers from cell reference standard curves.

U87MG cells [4] = test: Real-time PCR (Q-PCR) gene expression; format: cell-based, human; conditions: 500 μM dB-cAMP
Protocol: Total RNA was isolated from cells with TRIzol Reagent (Gibco BRL). The RNA (1 μg) was primed with oligo (dT)12-18 primers (0.5 μg/μg RNA, Gibco BRL) and reverse transcribed with 1-3 U of avian myeloblastosis virus reverse transcriptase (AMV RT, Promega) in a final volume of 20 μl. Completed RT reactions were diluted to 40 μl with water. Control reactions without the enzyme were run in parallel to monitor for potential genomic contamination. Primers were designed (Primer Express Software v2.0) for genes of interest (Table III) using Primer Express 2.0 program. Real-Time PCR was carried out with SYBR Green PCR Core Reagents Kit (Applied Biosystems, CA, USA) using the GeneAmp® 5700 Sequence Detection System (Perkin Elmer Applied Biosystems). A cDNA pool serially diluted from 1:10 to 1:1000 was used to generate standard curves. Reactions were performed in 20 μl reaction mixture containing 1×SYBR PCR buffer (Perkin-Elmer), 200 μM of each dATP, dCTP, dGTP and 400 μM dUTP, 0.025 U/μl AmpliTaq Gold, 0.01 U/μl AmpEraseUNG (uracil-N-glycosylase), 3 mM MgCl2, 120 nM of each primer and 2 μl of cDNA. […] Fluorescence was detected at the end of every 60° C. phase. […]
The PCR cycle number at which fluorescence reaches a threshold value of 10 times the standard deviation of baseline emission was used for quantitative measurements. […]

U87MG cells [5] = test: Anchorage-independent growth in semi-solid agar (U87MG); format: cell-based, human; conditions: for reduction of U87MG colony formation / tumor growth in soft agar: 500 ng/ml protein
Protocol: D-MEM containing 10% FBS was warmed to 48° C. and diluted with Bacto-Agar to make a 0.6% (w/v) agar solution; 3 ml of agar solution was poured into 60 mm plates. […] Number and size of colonies formed were analyzed under the microscope (Olympus 1×50). Phase contrast images (6 fields/dish) were captured using a digital video camera (Olympus U-CMT) and analyzed with Northern Eclipse v.5.0 software. Each experiment was done in triplicate. Capillary-like tube (CLT) formation

PAI-1 in U87MG cells = test: Western blot of PAI-1; format: cell-based, human; conditions: 500 μM dB-cAMP, 6 days
Protocol: Cellular proteins were extracted using CHAPS buffer. Proteins were separated on a 10% SDS-PAGE gel and transferred onto nitrocellulose membranes. Membranes were blocked with 5% instant skim dry milk in PBST for 1 hour, then washed twice for 5 min with PBST. Blots were probed with 1:500 dilution of the PAI-1 primary antibody (Biogenesis Ltd, England, UK) in 2% skim milk in PBST supplemented with 10 mM sodium azide overnight at 4° C. After washing in PBST, membranes were incubated with HRP-labeled anti-mouse IgG secondary antibody (NEN Life Science Products, USA; 1:5000) for 1 h at room temperature. Bands were visualized using Western Blot Chemiluminescence Reagent Plus kit (NEN™ Life Science Products) and the Fluor-S™ multiImager (BioRad Lab., Hercules, Calif., USA).

U87MG cells [6] = test: ELISA of secreted proteins in U87MG conditioned media; format: cell-based, human; conditions: 500 μM dB-cAMP, 6 days
Hela cells = test: Anchorage-independent growth in semi-solid agar (Hela); format: cell-based, human; conditions: 500 ng/ml IGFBP-4, 4 weeks
Protocol: D-MEM containing 10% FBS was warmed to 48° C. and diluted with Bacto-Agar to make a 0.6% (w/v) agar solution; 3 ml of agar solution was poured into 60 mm plates. […] The solidified cell layer was covered with 500 μl D-MEM±treatment which was replaced every three days over a 20-25 day period. Number and size of colonies formed were analyzed under the microscope (Olympus 1×50). Phase contrast images (6 fields/dish) were captured using a digital video camera (Olympus U-CMT) and analyzed with Northern Eclipse v.5.0 software. Each experiment was done in triplicate. Capillary-like tube (CLT) formation

[7] = 500 ng/ml protein co-applied with U87MG CM

## CCCC(=O)Nc1ncnc2c1ncn2[C@@H]1O[C@@H]2COP(=O)(O)O[C@H]2[C@H]1OC(=O)CCC [dB-cAMP, dibutyryl cyclic AMP]
[1]; 500 μM dB-cAMP added directly to U87MG CM
  effect on U87MG CM-induced CLT formation: did not inhibit CLT formation
[1]; U87MG treated with 500 μM dB-cAMP, 6 days
  CLT formation by HBEC exposed to CM of dB-cAMP-treated U87MG: blocks the angiogenic response
[2]
  reduction in plasminogen activator activity (PAA): 30%
U87MG cells [3]; day 3
  decrease in proliferation: ~30%
U87MG cells [3]; day 5
  decrease in proliferation: ~45%
U87MG cells [3]; day 6
  decrease in proliferation: ~50%
U87MG cells [4]
  IGF-I and IGF-II mRNA change, Q-PCR: no changes were detected
U87MG cells [4]; day 6
  IGFBP-3 mRNA levels treated vs untreated, Q-PCR: not significantly different
U87MG cells [5]; 500 μM dB-cAMP or 500 ng/ml IGFBP-4
  total number of colonies vs untreated: not significantly (p<0.05) different
U87MG cells [5]; 500 μM dB-cAMP, 4 weeks
  reduction of size of colonies (total covered area per field): ~75%
U87MG cells [5]; 500 μM dB-cAMP, 4 weeks, untreated 1.1±0.3
  size of colonies (total covered area per field): 0.3±0.1 mm^2
PAI-1 in U87MG cells
  PAI-1 protein expression: up-regulation
U87MG cells [6]
  VEGF-A levels in CM, increase vs untreated: 20%
  levels of P1GF, IGF-1 and bFGF in CM: below the detection limit
U87MG cells [6]; untreated ~60
  VEGF-A level in CM of treated cells: ~80 ng/mL

## vascular endothelial growth factor-165 [VEGF]
[1]; 7 HBEC isolations, VEGF 20 ng/ml alone or U87MG CM
  HBEC preparations in which CLT formation was induced: 3 out of 7

B1: insulin-like growth factor binding protein (IGFBP)-4 (protein)
chain: MLPLCLVAALLLAAGPGPSLGDEAIHCPPCSEEKLARCRPPVGCEELVREPGCGCCATCALGLGMPCGVYTPRCGSGLRCYPPRGVEKPLHTLMHGQGVCMELAEIEAIQESLQPSDKDEGDHPNNSFSPCSAHDRRCLQKHFAKIRDRSTSGGKMKVNGAPREDARPVPQGSCQSELHRALERLAASQSRTHEDLYIIPIPNCDRNGNFHPKQCHPALDGQRGKCWCVDRKTGVKLPGGLEPKGELDCHQLADSFREVDPWSHPQFEKTGHHHHHHHHGGQ
modifications: Streptag-II/His8 tag; IGFBP-4 construct
notes: full length recombinant IGFBP-4 with Streptag-II/(His)8 tag, aa 1 to 258
[1]; [7]
  effect on U87MG CM-induced CLT formation: reversed U87MG CM-stimulated CLT (FIG. 4A-C) to control levels
[1]
  effect on IGF-1-induced CLT formation: potently inhibited
  effect on P1GF-induced CLT formation: antagonized
  effect on VEGF165-induced CLT formation: antagonized
  effect on bFGF-induced CLT formation: antagonized
Hela cells
  reduction of Hela colony formation / colony size: ~45%
Hela cells; listed as IGFBP4
  reduction of Hela colony formation / colony size: ~50%
U87MG cells [3]; 500 ng/ml
  effect on U87MG proliferation rates: did not affect U87MG proliferation rates
U87MG cells [5]; 500 ng/ml IGFBP-4, 4 weeks, untreated 1.5±0.6
  size of colonies (total area per field): 0.4±0.3 mm^2
U87MG cells [5]; 4 weeks
  reduction of U87MG colony formation / tumor growth in soft agar: ~80%

B2: NBP-4: recombinant N-terminal IGFBP-4 protein fragment, aa 1 to 156 of the precursor, tagged (protein)
chain: MLPLCLVAALLLAAGPGPSLGDEAIHCPPCSEEKLARCRPPVGCEELVREPGCGCCATCALGLGMPCGVYTPRCGSGLRCYPPRGVEKPLHTLMHGQGVCMELAEIEAIQESLQPSDKDEGDHPNNSFSPCSAHDRRCLQKHFAKIRDRSTSGGKMDPWSHPQFEKTGHHHHHHHHGGQ
modifications: tagged; IGFBP4 N-terminal fragment construct
notes: recombinant N-terminal IGFBP-4 protein fragment, aa 1 to 156 of the precursor, tagged
[1]
  effect on IGF-1-induced CLT formation: abolish the angiogenic response
  effect on VEGF165-induced CLT formation: abolish the angiogenic response
U87MG cells [5]; 4 weeks
  reduction of U87MG colony formation / tumor growth in soft agar: ~50%

B3: CBP-4: recombinant C-terminal IGFBP-4 protein fragment, aa 155 to 258 of the precursor, tagged (protein)
chain: MLLLLLLLGLRLQLSLGIASKVNGAPREDARPVPQGSCQSELHRALERLAASQSRTHEDLYIIPIPNCDRNGNFHPKQCHPALDGQRGKCWCVDRKTGVKLPGGLEPKGELDCHQLADSFREVDPWSHPQFEKTGHHHHHHHHGGQ
modifications: tagged; IGFBP4 C-terminal construct
notes: recombinant C-terminal IGFBP-4 protein fragment, aa 155 to 258 of the precursor, tagged
[1]; [7]
  effect on U87MG CM-induced CLT formation: completely blocking
[1]
  effect on IGF-1-induced CLT formation: completely blocking
  effect on P1GF-induced CLT formation: completely blocking
  effect on VEGF165-induced CLT formation: completely blocking
  effect on bFGF-induced CLT formation: completely blocking
U87MG cells [5]; 4 weeks
  reduction of U87MG colony formation / tumor growth in soft agar: ~55%
